Experimental data taken from patent US20150344570A1 (published 2015).

biological target: T1, FcγRIa (human, UniProt P12314 16-292); assay: SPR (Biacore); He Ab relative to HeCon Ab = 100
T1 construct: extracellular domain; also called FcgRI; 1a
Procedure, shortened: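 SPR, 25° C, HBS-EP+; Ab captured via immobilized antigen peptide (CM5 amine coupling or SA/biotin); FcγR in running buffer as analyte; regen 10 mM glycine-HCl pH 1.5.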

T1 sequence (P12314 16-292): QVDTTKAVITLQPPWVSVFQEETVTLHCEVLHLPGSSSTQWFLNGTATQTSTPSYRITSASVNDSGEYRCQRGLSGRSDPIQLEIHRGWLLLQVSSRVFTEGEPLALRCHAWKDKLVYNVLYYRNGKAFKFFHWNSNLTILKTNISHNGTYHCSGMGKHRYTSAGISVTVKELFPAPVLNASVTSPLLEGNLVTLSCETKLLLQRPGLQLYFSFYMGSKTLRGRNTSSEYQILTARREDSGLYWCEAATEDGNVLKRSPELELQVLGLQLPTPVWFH

| Binder | He/Con_1a |
| --- | --- |
| GpH7-A5/GpH7-B3 variant L234_10E/GpL16-k0 (antibody, human IgG1, kappa, also called He Ab L234_10E) heavy 1: not shown heavy 2: not shown light: DIVMTQSPLSLPVTPGEPASISCQASESLVHSNRNTYLHWYLQKPGQSPQLLIYKVSNRFSGVPDRFSGSGSGTDFTLKISRVEAEDVGVYYCSQNTHVPPTFGQGTKVEIERTVAAPSVFIFPPSDEQLKSGTASVVCLLNNFYPREAKVQWKVDNALQSGNSQESVTEQDSKDSTYSLSSTLTLSKADYEKHKVYACEVTHQGLSSPVTKSFNRGEC | 100 % of control |
| GpH7-A5/GpH7-B3 variant L328_19Q/GpL16-k0 (antibody, human IgG1, kappa, also called He Ab L328_19Q) heavy 1: not shown heavy 2: not shown light: DIVMTQSPLSLPVTPGEPASISCQASESLVHSNRNTYLHWYLQKPGQSPQLLIYKVSNRFSGVPDRFSGSGSGTDFTLKISRVEAEDVGVYYCSQNTHVPPTFGQGTKVEIERTVAAPSVFIFPPSDEQLKSGTASVVCLLNNFYPREAKVQWKVDNALQSGNSQESVTEQDSKDSTYSLSSTLTLSKADYEKHKVYACEVTHQGLSSPVTKSFNRGEC | 101 % of control |
| GpH7-A5/GpH7-B3 variant L328_20W/GpL16-k0 (antibody, human IgG1, kappa, also called He Ab L328_20W) heavy 1: not shown heavy 2: not shown light: DIVMTQSPLSLPVTPGEPASISCQASESLVHSNRNTYLHWYLQKPGQSPQLLIYKVSNRFSGVPDRFSGSGSGTDFTLKISRVEAEDVGVYYCSQNTHVPPTFGQGTKVEIERTVAAPSVFIFPPSDEQLKSGTASVVCLLNNFYPREAKVQWKVDNALQSGNSQESVTEQDSKDSTYSLSSTLTLSKADYEKHKVYACEVTHQGLSSPVTKSFNRGEC | 103 % of control |
| GpH7-A5/GpH7-B3 variant L328_10E/GpL16-k0 (antibody, human IgG1, kappa, also called He Ab L328_10E) heavy 1: not shown heavy 2: not shown light: DIVMTQSPLSLPVTPGEPASISCQASESLVHSNRNTYLHWYLQKPGQSPQLLIYKVSNRFSGVPDRFSGSGSGTDFTLKISRVEAEDVGVYYCSQNTHVPPTFGQGTKVEIERTVAAPSVFIFPPSDEQLKSGTASVVCLLNNFYPREAKVQWKVDNALQSGNSQESVTEQDSKDSTYSLSSTLTLSKADYEKHKVYACEVTHQGLSSPVTKSFNRGEC | 101 % of control |
| GpH7-A5/GpH7-B3 variant L328_14T/GpL16-k0 (antibody, human IgG1, kappa, also called He Ab L328_14T) heavy 1: not shown heavy 2: not shown light: DIVMTQSPLSLPVTPGEPASISCQASESLVHSNRNTYLHWYLQKPGQSPQLLIYKVSNRFSGVPDRFSGSGSGTDFTLKISRVEAEDVGVYYCSQNTHVPPTFGQGTKVEIERTVAAPSVFIFPPSDEQLKSGTASVVCLLNNFYPREAKVQWKVDNALQSGNSQESVTEQDSKDSTYSLSSTLTLSKADYEKHKVYACEVTHQGLSSPVTKSFNRGEC | 100 % of control |

Now from value to binder:

| He/Con_1a | Binder |
| --- | --- |
| 101 % of control | GpH7-A5/GpH7-B3 variant L328_03V/GpL16-k0 (antibody, human IgG1, kappa, also called He Ab L328_03V) heavy 1: not shown heavy 2: not shown light: DIVMTQSPLSLPVTPGEPASISCQASESLVHSNRNTYLHWYLQKPGQSPQLLIYKVSNRFSGVPDRFSGSGSGTDFTLKISRVEAEDVGVYYCSQNTHVPPTFGQGTKVEIERTVAAPSVFIFPPSDEQLKSGTASVVCLLNNFYPREAKVQWKVDNALQSGNSQESVTEQDSKDSTYSLSSTLTLSKADYEKHKVYACEVTHQGLSSPVTKSFNRGEC |
| 100 % of control | GpH7-A5/GpH7-B3 variant P238_03V/GpL16-k0 (antibody, human IgG1, kappa, also called He Ab P238_03V) heavy 1: not shown heavy 2: not shown light: DIVMTQSPLSLPVTPGEPASISCQASESLVHSNRNTYLHWYLQKPGQSPQLLIYKVSNRFSGVPDRFSGSGSGTDFTLKISRVEAEDVGVYYCSQNTHVPPTFGQGTKVEIERTVAAPSVFIFPPSDEQLKSGTASVVCLLNNFYPREAKVQWKVDNALQSGNSQESVTEQDSKDSTYSLSSTLTLSKADYEKHKVYACEVTHQGLSSPVTKSFNRGEC |
| 101 % of control | GpH7-A5/GpH7-B3 variant P238_04F/GpL16-k0 (antibody, human IgG1, kappa, also called He Ab P238_04F) heavy 1: not shown heavy 2: not shown light: DIVMTQSPLSLPVTPGEPASISCQASESLVHSNRNTYLHWYLQKPGQSPQLLIYKVSNRFSGVPDRFSGSGSGTDFTLKISRVEAEDVGVYYCSQNTHVPPTFGQGTKVEIERTVAAPSVFIFPPSDEQLKSGTASVVCLLNNFYPREAKVQWKVDNALQSGNSQESVTEQDSKDSTYSLSSTLTLSKADYEKHKVYACEVTHQGLSSPVTKSFNRGEC |
| 100 % of control | GpH7-A5/GpH7-B3 variant L234_15Y/GpL16-k0 (antibody, human IgG1, kappa, also called He Ab L234_15Y) heavy 1: not shown heavy 2: not shown light: DIVMTQSPLSLPVTPGEPASISCQASESLVHSNRNTYLHWYLQKPGQSPQLLIYKVSNRFSGVPDRFSGSGSGTDFTLKISRVEAEDVGVYYCSQNTHVPPTFGQGTKVEIERTVAAPSVFIFPPSDEQLKSGTASVVCLLNNFYPREAKVQWKVDNALQSGNSQESVTEQDSKDSTYSLSSTLTLSKADYEKHKVYACEVTHQGLSSPVTKSFNRGEC |
